Test results published in US20250206841A1 (ADEPT THERAPEUTICS, published 2025).

T1: human Trop-1 (EpCAM) (human, UniProt P16422 24-265, limits assumed)
T1 sequence (looked up): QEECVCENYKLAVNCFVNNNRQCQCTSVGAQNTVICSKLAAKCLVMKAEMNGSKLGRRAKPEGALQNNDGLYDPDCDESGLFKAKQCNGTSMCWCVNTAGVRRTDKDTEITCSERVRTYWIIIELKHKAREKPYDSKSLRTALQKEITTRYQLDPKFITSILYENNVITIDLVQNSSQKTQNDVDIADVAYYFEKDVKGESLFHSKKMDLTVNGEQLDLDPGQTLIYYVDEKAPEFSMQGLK

T2: mouse Trop-2 (mouse, UniProt Q8BGV3 25-270, limits assumed)
T2 construct: also called Kactus Cat #TRP-MM121
T2 sequence (looked up): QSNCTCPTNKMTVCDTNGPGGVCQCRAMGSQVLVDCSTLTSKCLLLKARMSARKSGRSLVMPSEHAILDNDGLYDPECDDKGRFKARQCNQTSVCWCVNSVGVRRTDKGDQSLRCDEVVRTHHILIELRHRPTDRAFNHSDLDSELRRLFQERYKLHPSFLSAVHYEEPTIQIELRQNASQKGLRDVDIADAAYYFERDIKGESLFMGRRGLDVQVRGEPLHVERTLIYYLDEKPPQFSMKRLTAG

T3: human Trop-2 expressed on cell surface (human, UniProt P09758 27-323)
T3 sequence (looked up): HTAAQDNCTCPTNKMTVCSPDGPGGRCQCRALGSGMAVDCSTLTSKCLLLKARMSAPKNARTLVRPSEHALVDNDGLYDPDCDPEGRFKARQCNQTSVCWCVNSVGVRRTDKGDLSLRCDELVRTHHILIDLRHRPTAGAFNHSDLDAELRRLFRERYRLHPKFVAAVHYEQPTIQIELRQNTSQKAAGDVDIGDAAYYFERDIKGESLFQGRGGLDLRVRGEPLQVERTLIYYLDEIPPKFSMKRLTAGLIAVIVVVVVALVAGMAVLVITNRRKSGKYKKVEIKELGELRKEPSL

T4: human Trop-2-His protein (human, UniProt P09758 27-274)
T4 construct: extracellular domain; Assay paragraphs say only 'Trop-2-His'; also called hTrop-2; Kactus Cat #TRP-HM121; not shown: His tag
T4 sequence (looked up): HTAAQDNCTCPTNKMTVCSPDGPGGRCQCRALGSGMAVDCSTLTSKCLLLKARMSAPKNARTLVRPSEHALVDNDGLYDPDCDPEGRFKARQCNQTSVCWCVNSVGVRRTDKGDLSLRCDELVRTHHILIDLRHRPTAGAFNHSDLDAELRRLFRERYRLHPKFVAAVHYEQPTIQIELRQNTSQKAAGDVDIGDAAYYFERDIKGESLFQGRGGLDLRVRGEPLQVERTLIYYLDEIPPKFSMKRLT

T5: cynomolgus Trop-2-His protein (cynomolgus, UniProt P09758 27-274 (human entry))
T5 construct: also called cynmolgus Trop-His; Kactus Cat #TRP-CM121; not shown: His tag
T5 chain: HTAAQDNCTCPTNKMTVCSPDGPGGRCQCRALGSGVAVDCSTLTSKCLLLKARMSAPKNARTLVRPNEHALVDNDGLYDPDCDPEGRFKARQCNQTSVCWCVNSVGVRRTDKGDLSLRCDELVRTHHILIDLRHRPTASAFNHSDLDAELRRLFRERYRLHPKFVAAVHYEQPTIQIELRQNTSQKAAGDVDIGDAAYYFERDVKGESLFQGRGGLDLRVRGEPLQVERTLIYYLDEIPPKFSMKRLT


Columns and labels:
human Trop-1 (EpCAM) = biological target: T1, human Trop-1 (EpCAM); assay: ELISA, similar to Table 24
Description: (§1) Purified antibodies were tested by ELISA to confirm their binding and affinity against human and cynomolgus Trop-2-His protein. Briefly, 96-well Maxisorp plates (Nunc) were coated with 100 μl/well of 0.5 μg/ml human (Kactus Cat #TRP-HM121, or Sino Biological, Cat #10428-HO8H) or cynomolgus Trop-2 protein (Kactus Cat #TRP-CM121, or Sino Biological, Cat #90893-CO8H) diluted in 1×PBS (GIBCO) overnight at 4° C. Plates were washed four times with 300 μl/well washing buffer (1×PBST, diluted from 20×PBST (Thermo Scientific) with distilled water)) and then blocked with 300 μl/well of blocking buffer (1×PBST/3% BSA (BSA, Sigma)) for 2 hours at RT on plate shaker at 100 rpm. Plates were washed and added with 100 μl/well of testing antibodies, which were serial diluted with assay buffer (PBST/1% BSA). The antibodies were incubated at room temperature for 2 hours on plate shaker at 100 rpm. Plates were washed. One hundred microliters (100 μl) of 1:10,000 diluted horseradish peroxidase (HRP) conjugated anti-hIgG antibody (Jackson Immuno Research) was added into each well and incubated at room temperature for 1 hour on plate shaker at 100 rpm. Plates were washed and added with 100 μl/well TMB substrate for color development in dark at room temperature for up to 10 minutes. After addition of 50 μl/well of stop solution (1N H₂SO₄), plates were read at 450 nm on a plate reader (SpectraMax M5). EC₅₀ values were calculated using Graphpad Prism. Sacituzumab govitecan, was used as positive control. Anti-HEL.hIgG1 was used as isotype control.
(§2) Similar assays were performed to test whether the exemplary antibodies of the present disclosure bind to human Trop-1 (EpCAM) or mouse Trop-2 (Kactus, Cat #TRP-MM121) or rat Trop-2 (kactus, Cat #TRP_RM121). No binding of the exemplary antibodies of the present disclosure to human Trop-1 (EpCAM) or mouse or rat Trop-2 has been detected.

mouse Trop-2 = biological target: T2, mouse Trop-2; assay: ELISA, similar to Table 24
Description: as §1, §2

[1] = biological target: T3, human Trop-2 expressed on cell surface; assay: cell-based or functional assay
[2] = biological target: T3, human Trop-2 expressed on cell surface; assay: cell-based or functional assay; remark: listed apart in the source
human Trop-2-His protein [3] = biological target: T4, human Trop-2-His protein; assay: ELISA, coated Trop-2 protein
Summary of the method: (§3)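 Purified antibodies were checked for binding to human or cynomolgus Trop-2-His protein by ELISA. Maxisorp plates were coated overnight at 4° C with 0.5 μg/ml protein, blocked with PBST/3% BSA, and incubated with serially diluted antibodies. Binding was detected with HRP-conjugated anti-hIgG and TMB, read at 450 nm, and EC₅₀ values were calculated in Graphpad Prism.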

[4] = biological target: T5, cynomolgus Trop-2-His protein; assay: ELISA, coated Trop-2 protein
Summary of the method: as §3

human Trop-2-His protein [5] = biological target: T4, human Trop-2-His protein; assay: BLI (Gator Plus), purified Ab on HFC probe
Description: The affinity of the binding of the exemplary anti-Trop-2 antibodies of the present disclosure were determined. Assay was performed using Gator Plus according to the protocol recommended by Gator Bio Inc.. Briefly, human Trop-2-His (Kactus) was 1:4 fold serially diluted starting at 1 μg/ml. After three times of regeneration and neutralization of HFC probe, 1 μg/ml of antibody to be tested in Q buffer was immobilized onto HFC probe. […] The association and dissociation of human Trop-2-His antigen from antibody was measured on BLI machine Gator Plus. Affinity was calculated using Gator Bio analysis software. Blank control was used for reference subtraction. Sacituzumab govitecan was used as positive control.

Row | binding result (human Trop-1 (EpCAM)) | binding result (mouse Trop-2) | EC50 of ADCC (NFAT-CD16 reporter), MCF-7 [1] | EC50 of ADCC (NFAT-CD16 reporter), MDA-MB-231 [1] | Internalization %, MCF-7, 0.25 µg/ml, 1 h [2] | Internalization %, MCF-7, 0.25 µg/ml, 2 h [2] | Internalization %, MCF-7, 0.25 µg/ml, 4 h [2] | Internalization %, MCF-7, 0.5 µg/ml, 1 h [2] | Internalization %, MCF-7, 0.5 µg/ml, 2 h [2] | Internalization %, MCF-7, 0.5 µg/ml, 4 h [2] | EC50 (human Trop-2-His protein [3]) | EC50 [4] | Kd (human Trop-2-His protein [5]) | koff (human Trop-2-His protein [5]) | kon (human Trop-2-His protein [5]) | Binder
1 | no binding | no binding | 0.17 nM | 0.03 nM | 15% | 26% | 36% | 23% | 37% | 44% | 0.029 nM | 0.033 nM | 0.03 nM | 2.5e-05 s⁻¹ | 766000 M⁻¹ s⁻¹ | 63H3 (antibody, V domains shown, Rabbit-derived clone; LEM construct: VH + rabbit IgG CH1 + human IgG1 CH2-CH3) VH: QEQLKESGGGLVQPGGSLKLSCKASGFDFNSYGVSWVRQAPGKGLEWIAYIYPAFHNAYYANWVNGRFTISSDNAQNTVDLQLNSLTAADTATYFCARDAGGTDYNYNLWGPGTLVTVSS VL: DVVMTQTPASVEVAVGGTVTLKCQASEDIESYSAWYQQKPGQPPNLLIYEASKLASGVSSRFSGSGYGTEFTLTISGVECADAATYYCQQALTIGNVDNPFGGGSEVVVR
2 | no binding | no binding | 0.22 nM | 0.06 nM | 20% | 36% | 45% | 33% | 45% | 53% | 0.013 nM | 0.014 nM | 0.25 nM | 0.000193 s⁻¹ | 788000 M⁻¹ s⁻¹ | 66A1 (antibody, V domains shown, Rabbit-derived clone; LEM construct: VH + rabbit IgG CH1 + human IgG1 CH2-CH3) VH: QEQLKESGGGLVQPGGSLKLSCKASGFDFNNYGVSWVRQAPGKGLEWIAYIYPAFHNTYYASWVNGRFTISSHNAQNTLYLQLNSLTAADTATYFCARDAGGTDYAYNLWGPGTLVTVSS VL: DVVMTQTPASVEAAVGGTVSINCQASEDIESYLAWYQQKPGQPPKLLIYKASTLASGVSSRFKGSGSGKQFTLTISGVECADAATYYCQQVLTIGNVDNPFGGGSEVVVK
3 | no binding | no binding | 0.32 nM | 0.05 nM | 18% | 36% | 41% | 23% | 41% | 42% | 0.019 nM | 0.015 nM | 1.1 nM | 0.000898 s⁻¹ | 819000 M⁻¹ s⁻¹ | 65D5 (antibody, V domains shown, Rabbit-derived clone; LEM construct: VH + rabbit IgG CH1 + human IgG1 CH2-CH3) VH: QEQLKESGGGLVQPGGSLKLSCKASGFDFNAYGVSWVRQAPGKGLEWIAYIYPAFHNTYYATWVNGRFTISSHNAQNTLYLQLNTLTAADTATYFCARDAGTTDYNFNLWGPGTLVTVSS VL: DIVMTQTPASVSEPVGGTVTIKCQASQSISSYLAWYQQKPGQPPKLLIYEATKLTSGVSSRFSGSGYGTEFTLTISGVECADAATYYCQQALTVGDVDNPFGGGSEVVVK
